Results from the Human Domainome abundance scans (Beltran et al. 2025).
± gives the uncertainty stated by the source.

B1: POU domain, class 4, transcription factor 1, residues 266 to 347; numbered along this chain, Q01851 (parent)
chain: RELEAFAERFKQRRIKLGVTQADVGSALANLKIPGVGSLSQSTICRFESLTLSHNNMIALKPILQAWLEEAEGAQREKMNKP

Variants of: B1
Assay: abundance fitness (aPCA) (normalised: wild type 0, dead -1); higher = more abundant; growth selection in yeast, the domain comes from the species named
Conditions: Homo sapiens

Variant | abundance fitness
RESEAFAERFKQRRIKLGVTQADVGSALANLKIPGVGSLSQSTICRFESLTLSHNNMIALKPILQAWLEEAEGAQREKMNKP | -0.374 ± 0.052
RELEAFAERFKQRRIKLGVTQADVGSALANLKIPGVMSLSQSTICRFESLTLSHNNMIALKPILQAWLEEAEGAQREKMNKP | -0.134 ± 0.037
RELEAFAERFKQRRIKLGVTQAGVGSALANLKIPGVGSLSQSTICRFESLTLSHNNMIALKPILQAWLEEAEGAQREKMNKP | -0.067 ± 0.045
RELEAFAERFKQRRIKLGVTQAFVGSALANLKIPGVGSLSQSTICRFESLTLSHNNMIALKPILQAWLEEAEGAQREKMNKP | -0.208 ± 0.12
RELEVFAERFKQRRIKLGVTQADVGSALANLKIPGVGSLSQSTICRFESLTLSHNNMIALKPILQAWLEEAEGAQREKMNKP | -0.06 ± 0.039
RELEAFAERFKQRRIKLGVRQADVGSALANLKIPGVGSLSQSTICRFESLTLSHNNMIALKPILQAWLEEAEGAQREKMNKP | -0.087 ± 0.1
RELEAFAERFKQRRIKLGVTQADVGSALANLKIPGVGSLSQSTICRFESLTLSHNNMIALKPILQAWLEEAEGKQREKMNKP | -0.009 ± 0.034
RELEAFAERFKQRRIKLGVTQADVGSALANLKIPGVGSLSQSTICRFESLTLSHNNMIALKPILQAWLEEAEGYQREKMNKP | 0.002 ± 0.046
RELEAFAERFKQRRIKLGVTQADVGSALANLKIPGVGSLSQSTICRFESLTLSHNNMIALKPILQAWLEEAEGPQREKMNKP | -0.05 ± 0.034
VELEAFAERFKQRRIKLGVTQADVGSALANLKIPGVGSLSQSTICRFESLTLSHNNMIALKPILQAWLEEAEGAQREKMNKP | -0.09 ± 0.038
RELEAFAERFKQRRIKLGVTQADVGSALANLKIPGVGSLSQSTICRFESLTLSHNNMIALKPILQAWLEEAEGAQRGKMNKP | -0.025 ± 0.023
RELEAFAERFKQRRIKLGVTQADVGSALANLKIPGVGSLSQSTICRFESLTLSHNNMIALKPILQAWLEEAEGAQRIKMNKP | -0.063 ± 0.065
RELEAFAERFKQRRIKLGVTQADVGSALANLKIPGYGSLSQSTICRFESLTLSHNNMIALKPILQAWLEEAEGAQREKMNKP | -0.257 ± 0.38
RELEAFAERFKQRRIKLGVTQADVGSALANLKIPGVGSLSQSTICRFESLTLSHNNMIALKPILQAWLEEDEGAQREKMNKP | -0.572 ± 0.11
RELEAFAERFKQRRIKLGVTQADVGSALANLKIPGVGSLSQSTICRFESLTLSHNNMIALKPILQAWLEEQEGAQREKMNKP | -0.051 ± 0.074
RELEAFAERFKQRRIKLGVTQADVGSALANLKIPGVGSLSQSTICRFESLTLSHNNMIALKPILQAWLEEEEGAQREKMNKP | -0.062 ± 0.054
RELEAFAERFKQRRIKLGCTQADVGSALANLKIPGVGSLSQSTICRFESLTLSHNNMIALKPILQAWLEEAEGAQREKMNKP | -0.104 ± 0.1

Variant | abundance fitness
RELEAFAERFKQRRIKLGPTQADVGSALANLKIPGVGSLSQSTICRFESLTLSHNNMIALKPILQAWLEEAEGAQREKMNKP | -0.827 ± 0.25
RELEAFAERFKQRRIKLGVTQADVGSALANLKIPGVGSLSQSTICRFESLTLSHNNMIALKPILQAWLEEAEGAQREKMQKP | 0.091 ± 0.061
RELEAFAERFKQRRIKLGVTQADVGSALANLKIPGVGSLSQSTICRFESLTLSHNNMIALKPILQAWLEEAEGAQREKMPKP | 0.073 ± 0.058
RELEAFAERFKQRRIKLGVTQADVGSALANLKIPGVGSLSQSTICRFESLILSHNNMIALKPILQAWLEEAEGAQREKMNKP | -0.205 ± 0.041
RELEAFAERFKQRRIKLGVTNADVGSALANLKIPGVGSLSQSTICRFESLTLSHNNMIALKPILQAWLEEAEGAQREKMNKP | -0.516 ± 0.38
RELEAFAERFKQRRIKLGVTQADVGSALANLKIPGVGSLSQSCICRFESLTLSHNNMIALKPILQAWLEEAEGAQREKMNKP | -0.101 ± 0.072
RELEAFAERFKQRRIKLGVTQADVGSALANLKIPGVGSLSQSDICRFESLTLSHNNMIALKPILQAWLEEAEGAQREKMNKP | -0.079 ± 0.075
RELEAFAERFKQRRIKLGVTQADVGSAEANLKIPGVGSLSQSTICRFESLTLSHNNMIALKPILQAWLEEAEGAQREKMNKP | -0.782 ± 0.048
RELEAFAERFKQRRIKLGVTQADVGSALANLKIPGVGSLSQSTICRFESLTLSHNNFIALKPILQAWLEEAEGAQREKMNKP | -0.309 ± 0.16
RELEAFAERFKQRRIKLGVTQADVGSALANLKIPGVGSLSQSTICPFESLTLSHNNMIALKPILQAWLEEAEGAQREKMNKP | -0.576 ± 0.18
RELEAFAERFKQRRIKLGVTQADVGSALANLKIPGVGSLSQSTICHFESLTLSHNNMIALKPILQAWLEEAEGAQREKMNKP | -0.203 ± 0.17
RELEAFAERFKQRRIKLGVTQADVGSALANLKIPGVGSLSQSTICRFESLTLSHNNMIALKLILQAWLEEAEGAQREKMNKP | -0.524 ± 0.066
RELEAFAERFKQRRIKLGVTQADVGSALANLKIPGVGSLSQSTICRFESLTLSHNNMIALKQILQAWLEEAEGAQREKMNKP | -0.393 ± 0.092
RELEAFAERFKQRRIKLGVTQADVGSALANLKIPGVGSLSQSTICRFESLTLSHNNMIALKPILQAFLEEAEGAQREKMNKP | 0.018 ± 0.15
RELEAFAERFKQRRIKLGVTQADVGSALANLKIPGVGSLSQSTICRFESLTLSHNNMIALKPILQAWLEEAEGAQREKNNKP | 0.023 ± 0.043
RELEAFAERFKQRRIKLGVTQWDVGSALANLKIPGVGSLSQSTICRFESLTLSHNNMIALKPILQAWLEEAEGAQREKMNKP | -0.038 ± 0.084
RELEAFAERFKQRRIKLGVTQHDVGSALANLKIPGVGSLSQSTICRFESLTLSHNNMIALKPILQAWLEEAEGAQREKMNKP | 0.01 ± 0.14
